Kd, koff and kon data for 21 molecules are collected here from patent publication US20160297884A1 (Pfizer, published 2016).

B1: C01_Rd4_0.6nM_C27 (antibody, V domains shown)
VH: EVQLLESGGGLVQPGGSLRLSCAASGFTFSSYPMSWVRQAPGKGLEWVSAIGGSGGSLPYADSVKGRFTISRDNSKNTLYLQMNSLRAEDTAVYYCARYWPMDSWGQGTLVTVSS
VL: EIVLTQSPGTLSLSPGERATLSCRASQSVSSTYLAWYQQKPGQAPRLLIYDASSRAPGIPDRFSGSGSGTDFTLTISRLEPEDFAVYYCQQYSRWPLTFGQGTKVEIK
notes: IgG
B2: COMBO_Rd4_0.6nM_C04 (antibody, V domains shown)
VH: B1 VH with I51H, G52I, L58T, P59Y
VL: B1 VL with I49M, S54I, P57T, S93Q, R94S
notes: IgG
B3: C01_Rd4_6nM_C04 (antibody, V domains shown)
VH: B1 VH
VL: B1 VL with R24C, A25S, R94A, W95F
notes: IgG
B4: C01_Rd4_6nM_C09 (antibody, V domains shown)
VH: B1 VH with I51T, G52V, L58I, P59G
VL: B1 VL with R24A, A25C, R94A
notes: IgG
B5: C01_Rd4_6nM_C24 (antibody, V domains shown)
VH: B1 VH
VL: B1 VL with S31P, T32E, R94V
notes: IgG
B6: COMBO_Rd4_0.6nM_C20 (antibody, V domains shown)
VH: B1 VH
VL: B1 VL with S31Y, T32L, I49M, S54I, P57T, S93M, R94E
notes: IgG
B7: COMBO_Rd4_0.6nM_C30 (antibody, V domains shown)
VH: B1 VH with L58T, P59Y
VL: B1 VL with S31Y, T32M, S54I, P57T, S93K, R94S
notes: IgG
B8: C01_Rd4_6nM_C12 (antibody, V domains shown)
VH: B1 VH with S57W, L58S, P59Y
VL: B1 VL with R24W, A25L, R94E
notes: IgG; also called PC1C12
B9: COMBO_Rd4_0.6nM_C29 (antibody, V domains shown)
VH: B1 VH with S104I
VL: B1 VL with T32S, I49M, S54I, P57T, S93Q, R94S
notes: IgG
B10: COMBO_Rd4_6nM_C07 (antibody, V domains shown)
VH: B1 VH with D103A, S104D
VL: B1 VL with S28P, V29I, T32S, I49M, S54I, P57T, S93Q, R94G
notes: IgG
B11: COMBO_Rd4_6nM_C02 (antibody, V domains shown)
VH: B1 VH with P33A, S35N, G52S, G53D, S57F, L58V, P59Y
VL: B1 VL with T32S, I49M, S54I, P57T, S93E, R94F
notes: IgG
B12: COMBO_Rd4_0.6nM_C17 (antibody, V domains shown)
VH: B1 VH with S104I
VL: B1 VL with S28G, V29I, I49M, S54I, P57T, S93A, R94Y
notes: IgG
B13: COMBO_Rd4_0.6nM_C05 (antibody, V domains shown)
VH: B1 VH with P33A, S35N, L58T, P59Y, D103S, S104L
VL: B1 VL with I49M, S54I, P57T, S93M, R94S
notes: IgG
B14: COMBO_Rd4_0.6nM_C14 (antibody, V domains shown)
VH: B1 VH with S104I
VL: B1 VL with S31A, T32L, I49M, S54I, P57T, S93Y, R94G
notes: IgG
B15: COMBO_Rd4_0.6nM_C11 (antibody, V domains shown)
VH: B1 VH with I51A, G52L, L58T, P59Y, D103S, S104L
VL: B1 VL with S31V, T32R, I49M, S54I, P57T, S93G, R94S, L97I
notes: IgG
B16: COMBO_Rd4_0.6nM_C02 (antibody, V domains shown)
VH: B1 VH
VL: B1 VL with Q27I, S28A, I49M, S54I, P57T, S93M, R94V
notes: IgG
B17: COMBO_Rd4_0.6nM_C09 (antibody, V domains shown)
VH: B1 VH with S104I
VL: B1 VL with I49M, S54I, P57T, S93Q, R94E
notes: IgG
B18: COMBO_Rd4_0.6nM_C23 (antibody, V domains shown)
VH: B1 VH with I51L, G52F, L58T, P59Y
VL: B1 VL with A25P, S26R, T32S, I49M, S54I, P57T, S93Q, R94D
notes: IgG
B19: C01_Rd4_6nM_C20 (antibody, V domains shown)
VH: B1 VH
VL: B1 VL with S31P, T32L, R94A, W95F
notes: IgG
B20: C01_Rd4_6nM_C10 (antibody, V domains shown)
VH: B1 VH
VL: B1 VL with T32V, R94T
notes: IgG
B21: C01_Rd4_6nM_C26 (antibody, V domains shown)
VH: B1 VH
VL: B1 VL with S31A, T32L, R94A
notes: IgG

Changes are numbered by the printed parent chain.

Broadly, the Kd is the free concentration of one partner at which half of the binding sites on the other are occupied at equilibrium, for simple one-to-one binding. The koff is a measure of how fast the partners let go of each other. In general, kon refers to the rate constant with which the complex forms.

The target in the first test is T1, Cynomolgus monkey BCMA (cynomolgus monkey).
T1 construct: Soluble analyte in SPR; also called cyBCMA; Cyno BCMA
The test can be described thus: SPR, IgG immobilised, cyno BCMA analyte. The procedure: (§1) All experiments were performed on a Bio-Rad Proteon XPR36 surface Plasmon resonance biosensor (Bio-Rad, Hercules, Calif.). […] The analysis temperature for the immobilization was 25° C. and the running buffer was HBS-T+(10 mM HEPES, 150 mM NaCl, 0.05% Tween-20, pH 7.4). Channels were activated in the analyte (horizontal) direction by injecting a mixture of 1 mM ECD and 0.25 mM NHS for 3 minutes at a flow rate of 30 μL/min. IgGs were immobilized on the activated spots by injecting them in the ligand (vertical) direction at 20 μg/mL in 10 mM Acetate pH 4.5 buffer for 1.5 minutes at […]. The activated surfaces were blocked by injecting 1M ethanolamine, pH 8.5 in the analyte direction for 3 minutes at 30 μL/min.
(§2) The analysis temperature for the BCMA binding analysis was 37° C. or 25° C. in a running buffer of HBS-T+, supplemented with 1 mg/mL BSA. A kinetic titration method was employed for the interaction analysis as described in Abdiche, et al. Human BCMA (huBCMA) or cynomolgus monkey BCMA (cyBCMA) analyte was injected in the analyte direction using a series of injections from low to high concentration. The concentrations used were 0.08 nM, 0.4 nM, 2 nM, 10 nM and 50 nM (a 5-membered series, with a 5-fold dilution factor and top concentration of 50 nM). The association time for a given analyte dilution was two minutes. Immediately after the 50 nM BCMA injection, dissociation was monitored for 2 hours.
(§3) The sensorgrams were double-referenced and fit to a 1:1 Langmuir with mass transport kinetic titration model in BIAevaluation Software version 4.1.1 (GE Lifesciences, Piscataway, N.J.).
(In general: In SPR one partner is held on a chip, and binding of the other changes the refractive index at the surface.)
With B1, binding was characterised by a dissociation constant (Kd) of 0.852 nM, the koff was found to be 0.00285 s⁻¹ and the kon was 3.34e+06 M⁻¹ s⁻¹.

B2 had a Kd of 0.039 nM, a koff of 0.000137 s⁻¹ and a kon of 3.52e+06 M⁻¹ s⁻¹.

In turn, B3 had a Kd of 5.16 nM, a koff of 0.0327 s⁻¹ and a kon of 6.34e+06 M⁻¹ s⁻¹.

Take B4: the dissociation constant (Kd) worked out at 2.33 nM, the off-rate (koff) was determined as 0.00868 s⁻¹ and the on-rate constant (kon) is 3.73e+06 M⁻¹ s⁻¹.

The molecule B5 returned a Kd of 0.281 nM, a koff of 0.000891 s⁻¹ and an on-rate (kon) of 3.17e+06 M⁻¹ s⁻¹.

The molecule B6 returned a Kd of 0.092 nM, a koff of 0.000284 s⁻¹ and a kon of 3.09e+06 M⁻¹ s⁻¹.

In turn, B7 came in with a Kd of 0.481 nM, a koff of 0.000808 s⁻¹ and a kon of 1.68e+06 M⁻¹ s⁻¹.

Consider B8, for which the affinity, expressed as Kd, was 0.82 nM; the koff came out at 0.0037 s⁻¹; the kon came out at 4.51e+06 M⁻¹ s⁻¹.

For B9, the Kd was found to be 0.084 nM, the koff was 0.000336 s⁻¹ and the association rate constant (kon) amounted to 4e+06 M⁻¹ s⁻¹.

With B10, binding was characterised by a dissociation constant (Kd) of 0.237 nM, the koff is 0.000934 s⁻¹ and the kon came to 3.94e+06 M⁻¹ s⁻¹.

B11 yielded a Kd of 1.71 nM, a dissociation rate constant (koff) of 0.00136 s⁻¹ and a kon of 795000 M⁻¹ s⁻¹.

Molecule B12 displayed a Kd of 0.33 nM, a koff of 0.00101 s⁻¹ and a kon of 3.06e+06 M⁻¹ s⁻¹.

In turn, B13 displayed a Kd of 0.886 nM, a koff of 0.00172 s⁻¹ and a kon of 1.94e+06 M⁻¹ s⁻¹.

In turn, B14 had a Kd of 0.185 nM, a koff of 0.000645 s⁻¹ and a kon of 3.48e+06 M⁻¹ s⁻¹.

Molecule B15 returned a dissociation constant (Kd) of 1.92 nM, a koff of 0.00423 s⁻¹ and a kon of 2.2e+06 M⁻¹ s⁻¹.

In the case of B16, the Kd amounted to 0.164 nM, the koff is 0.000494 s⁻¹ and the kon amounted to 3.01e+06 M⁻¹ s⁻¹.

In the case of B17, the Kd was 0.092 nM, the koff came to 0.000346 s⁻¹ and the kon is 3.77e+06 M⁻¹ s⁻¹.

Take B18: binding was characterised by a dissociation constant (Kd) of 0.189 nM, the koff was found to be 0.000531 s⁻¹ and the kon came out at 2.81e+06 M⁻¹ s⁻¹.

As to B19, the affinity, expressed as Kd, was 1.74 nM; the koff was determined as 0.00625 s⁻¹; the kon is 3.6e+06 M⁻¹ s⁻¹.

B20 came in with a Kd of 0.493 nM, a koff of 0.00219 s⁻¹ and a kon of 4.44e+06 M⁻¹ s⁻¹.

As for B21, the Kd was found to be 0.419 nM, the koff worked out at 0.00199 s⁻¹ and the kon was 4.75e+06 M⁻¹ s⁻¹.

A further test deals with T2, Human BCMA (human, UniProt Q02223 1-54, limits assumed).
T2 construct: also called huBCMA; B-cell maturation antigen
T2 sequence (looked up): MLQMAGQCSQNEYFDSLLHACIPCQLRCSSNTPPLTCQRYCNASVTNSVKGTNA
In words: SPR, IgG immobilised, human BCMA analyte. How it is done: as §1, §2, §3
Regarding B1, binding was characterised by a dissociation constant (Kd) of 0.303 nM, the koff was found to be 0.00374 s⁻¹ and the kon stood at 1.23e+07 M⁻¹ s⁻¹.

For the molecule B2, the Kd worked out at 0.015 nM, the off-rate (koff) came to 0.000158 s⁻¹ and the on-rate (kon) was determined as 1.07e+07 M⁻¹ s⁻¹.

The molecule B3 yielded a Kd of 2.13 nM, a koff of 0.0497 s⁻¹ and a kon of 2.33e+07 M⁻¹ s⁻¹.

As for B4, the Kd was 0.811 nM, the koff is 0.0128 s⁻¹ and the kon was found to be 1.58e+07 M⁻¹ s⁻¹.

B5 gave a Kd of 0.467 nM, an off-rate (koff) of 0.00348 s⁻¹ and a kon of 7.47e+06 M⁻¹ s⁻¹.

The molecule B6 displayed an equilibrium dissociation constant (Kd) of 0.019 nM, a koff of 0.000146 s⁻¹ and an on-rate constant (kon) of 7.65e+06 M⁻¹ s⁻¹.

In turn, B7 returned a Kd of 0.065 nM, a koff of 0.000282 s⁻¹ and a kon of 4.35e+06 M⁻¹ s⁻¹.

Consider B8, for which the Kd amounted to 0.535 nM, the koff was determined as 0.00649 s⁻¹ and the on-rate (kon) is 1.21e+07 M⁻¹ s⁻¹.

B9 had a Kd of 0.019 nM, a koff of 0.000277 s⁻¹ and a kon of 1.47e+07 M⁻¹ s⁻¹.

B10 came in with a Kd of 0.035 nM, a koff of 0.000371 s⁻¹ and a kon of 1.05e+07 M⁻¹ s⁻¹.

Molecule B11 displayed a dissociation constant Kd of 0.422 nM, a koff of 0.000443 s⁻¹ and a kon of 1.05e+06 M⁻¹ s⁻¹.

With B12, the Kd worked out at 0.092 nM, the koff is 0.000801 s⁻¹ and the kon was 8.68e+06 M⁻¹ s⁻¹.

Molecule B13 showed a Kd of 0.115 nM, a koff of 0.000497 s⁻¹ and a kon of 4.32e+06 M⁻¹ s⁻¹.

As to B14, the Kd was determined as 0.038 nM, the koff was found to be 0.000328 s⁻¹ and the kon is 8.66e+06 M⁻¹ s⁻¹.

Molecule B15 came in with a Kd of 0.207 nM, a koff of 0.00106 s⁻¹ and an on-rate (kon) of 5.11e+06 M⁻¹ s⁻¹.

As to B16, the Kd was 0.022 nM, the koff amounted to 0.000185 s⁻¹ and the on-rate (kon) amounted to 8.57e+06 M⁻¹ s⁻¹.

In turn, B17 returned a Kd of 0.031 nM, a koff of 0.000319 s⁻¹ and a kon of 1.04e+07 M⁻¹ s⁻¹.

As for B18, binding was characterised by a dissociation constant (Kd) of 0.028 nM, the koff is 0.00021 s⁻¹ and the kon stood at 7.39e+06 M⁻¹ s⁻¹.

The molecule B19 displayed a Kd of 0.459 nM, a koff of 0.00276 s⁻¹ and a kon of 6.02e+06 M⁻¹ s⁻¹.

With B20, the Kd was 0.162 nM, the off-rate (koff) was determined as 0.00212 s⁻¹ and the kon amounted to 1.31e+07 M⁻¹ s⁻¹.

In the case of B21, the dissociation constant Kd came out at 0.09 nM, the koff stood at 0.00136 s⁻¹ and the kon is 1.5e+07 M⁻¹ s⁻¹.
